First the molecules themselves.
B1: Centrosomal protein POC5 (Homo sapiens), Q8NA72 (parent)
chain: MSSDEEKYSLPVVQNDSSRGSSVSSNLQEEYEELLHYAIVTPNIEPCASQSSHPKGELVPDVRISTIHDILHSQGNNSEVRETAIEVGKGCDFHISSHSKTDESSPVLSPRKPSHPVMDFFSSHLLADSSSPATNSSHTDAHEILVSDFLVSDENLQKMENVLDLWSSGLKTNIISELSKWRLNFIDWHRMEMRKEKEKHAAHLKQLCNQINELKELQKTFEISIGRKDEVISSLSHAIGKQKEKIELMRTFFHWRIGHVRARQDVYEGKLADQYYQRTLLKKVWKVWRSVVQKQWKDVVERACQARAEEVCIQISNDYEAKVAMLSGALENAKAEIQRMQHEKEHFEDSMKKAFMRGVCALNLEAMTIFQNRNDAGIDSTNNKKEEYGPGVQGKEHSAHLDPSAPPMPLPVTSPLLPSPPAAVGGASATAVPSAASMTSTRAASASSVHVPVSALGAGSAATAASEEMYVPRVVTSAQQKAGRTITARITGRCDFASKNRISSSLAIMGVSPPMSSVVVEKHHPVTVQTIPQATAAKYPRTIHPESSTSASRSLGTRSAHTQSLTSVHSIKVVD

In the first assay the parent is B1. To be noted: with tba4a_human TUBA4A.
Consider MSSDEEKYSLPVVQNDSSRGSSVSSNLQEEYEELLHYAIVTPNIEPCASQSSHPKGELVPDVRISTIHDILHSQGNNSEVRETAIEVGKGCDFHISSHSKTDESSPVLSPRKPSHPVMDFFSSHLLADSSSPATNSSHTDAHEILVSDFLVSDENLQKMENVLDLWSSGLKTNIISELSKWRLNFIDWHRMEMRKEKEKHAAHLKQLCNQINELKELQKTFEISIGRKDEVISSLSHAIGKQKEKIELMRTFFHWRIGHVRARQDVYEGKLADQYYQRTLLKKVWKVWRSVVQKQWKDVVERACQARAEEVCIQISNDYEAKVAMLSGALENAKAEIQRMQHEKEHFEDSMKKAFMRGVCALNLEAMTIFQNRNDAGIDSTNNKKEEYGPGVQGKEHSAHLDPSAPPMPLPVTSPLLPSPPAAVGGASVTAVPSAASMTSTRAASASSVHVPVSALGAGSAATAASEEMYVPRVVTSAQQKAGRTITARITGRCDFASKNRISSSLAIMGVSPPMSSVVVEKHHPVTVQTIPQATAAKYPRTIHPESSTSASRSLGTRSAHTQSLTSVHSIKVVD [A429V], for which the “effect of a mutation on the interaction” value is recorded as “decreasing interaction strength”.

Variants of B1 are the subject of a further assay. Particulars: with tba4a_human TUBA4A. This is another data set of the same source.
Consider MSSDEEKYSLPVVQNDSSRGSSVSSNLQEEYEELLHYAIVTPNIEPCASQSSHPKGELVPDVRISTIHDILHSQGNNSEVRETAIEVGKGCDFHISSHSKTDESSPVLSPRKPSHPVMDFFSSHLLADSSSPATNSSHTDAHEILVSDFLVSDENLQKMENVLDLWSSGLKTNIISELSKWRLNFIDWHRMEMRKEKEKHAAHLKQLCNQINELKELQKTFEISIGRKDEVISSLSHAIGKQKEKIELMRTFFHWRIGHVRARQDVYEGKLADQYYQRTLLKKVWKVWRSVVQKQWKDVVERACQARAEEVCIQISNDYEAKVAMLSGALENAKAEIQRMQHEKEHFEDSMKKAFMRGVCALNLEAMTIFQNRNDAGIDSTNNKKEEYGPGVQGKEHSAHLDPSAPPMPLPVTSPLLPSPPAAVGGASVTAVPSAASMTSTRAASASSVHVPVSALGAGSAATAASEEMYVPRVVTSAQQKAGRTITARITGRCDFASKNRISSSLAIMGVSPPMSSVVVEKHHPVTVQTIPQATAAKYPRTIHPESSTSASRSLGTRSAHTQSLTSVHSIKVVD [A429V], for which the “effect of a mutation on the interaction” value is reported as “disrupting interaction strength”.

Source of the values: IntAct's records for PubMed 30845169.
